The record followed here is patent US20160362487A1.

Experiment [1] addresses human IL-33 (R&D Systems, #3625-IL-010/CF) (human) (UniProt O95760). Nature of the experiment: BLI; hIL-33 pre-mixed with mAb-2 H4H9670P. In general terms: BLI is a label-free optical method that tracks binding on a fibre tip over time.
Experiment [2] shares this target. Kind of experiment: BLI; hIL-33 pre-mixed with mAb-2 H4H9676P.
Experiment [3] has the same target. Nature of the experiment: BLI; hIL-33 pre-mixed with mAb-2 H4H9667P.
Experiment [4] shares this target. Kind of experiment: BLI; hIL-33 pre-mixed with mAb-2 H1M9559N.
The target in experiment [5] is cynomolgus monkey IL-33 expressed with a C-terminal hexahistidine tag (cynomolgus monkey). Nature of the experiment: BLI; captured MfIL-33-6His pre-complexed with mAb-1 H1M9559N.
Experiment [6] shares this target. Kind of experiment: BLI; captured MfIL-33-6His pre-complexed with mAb-1 H4H9665P.
The target is the same in experiment [7]. Nature of the experiment: BLI; captured MfIL-33-6His pre-complexed with mAb-1 H4H9664P.
For experiment [8] the target is unchanged. Nature of the experiment: BLI; captured MfIL-33-6His pre-complexed with mAb-1 H4H9667P.
For experiment [9] the target is unchanged. Kind of experiment: BLI; captured MfIL-33-6His, mAb-1 step with Buffer.
For experiment [10] the target is unchanged. Kind of experiment: BLI; captured MfIL-33-6His, mAb-1 step with Isotype control.
Experiment [11] has the same target. Kind of experiment: BLI; captured MfIL-33-6His pre-complexed with mAb-1 H4H9640P.
Experiment [12] shares this target. Nature of the experiment: BLI; captured MfIL-33-6His pre-complexed with mAb-1 H1M9565N.
The target is the same in experiment [13]. Nature of the experiment: BLI; mAb-1 on captured MfIL-33-6His.
Experiment [14] has the same target. Kind of experiment: BLI; captured MfIL-33-6His pre-complexed with mAb-1 H1M9566N.

Sequence of human IL-33 (R&D Systems, #3625-IL-010/CF) (human) (O95760 112-270 limits assumed): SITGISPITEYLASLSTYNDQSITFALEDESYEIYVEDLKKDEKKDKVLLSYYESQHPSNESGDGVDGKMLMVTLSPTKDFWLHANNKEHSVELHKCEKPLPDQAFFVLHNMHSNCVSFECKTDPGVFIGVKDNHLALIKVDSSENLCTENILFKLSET
Sequence of cynomolgus monkey IL-33 expressed with a C-terminal hexahistidine tag (cynomolgus monkey) (chain, as listed by the source limits assumed): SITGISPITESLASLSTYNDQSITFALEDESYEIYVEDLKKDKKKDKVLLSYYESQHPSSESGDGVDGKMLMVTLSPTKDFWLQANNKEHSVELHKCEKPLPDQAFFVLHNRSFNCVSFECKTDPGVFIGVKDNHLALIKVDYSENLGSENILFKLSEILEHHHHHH

In the case of Isotype control 1 (antibody), the mAb-1 Binding to the Pre-complex of mAb-2 & hIL-33 in experiment [1], in [2] and in experiment [3] was 0.01 nm each time.

Regarding Isotype control 2 (antibody), the mAb-1 Binding to the Pre-complex of mAb-2 & hIL-33 in experiment [4] was determined as 0.02 nm.

In the case of isotype control antibody, the mAb-2 Binding to the Pre-complex of mAb-1 & MfIL-33-6xHis in experiment [5] worked out at 0.01 nm; in [6] it was 0.03 nm; in experiment [7] it was 0.02 nm; in experiment [8], 0.03 nm; in experiment [9], 0.03 nm; in experiment [10] it was 0.01 nm. Moreover, the mAb-2 Binding to the Pre-complex of mAb-1 & MfIL-33-6xHis turned out to be 0.02 nm in [11], 0.04 nm in experiment [12] and 0.04 nm in [14]. Further, the mAb-1 Binding (nm) in experiment [13] worked out at 0.01 nm.
